Assay [1] has as its target endogenous Apaf-1 polypeptide of 293T cells (human) (UniProt O14727). The assay is described as follows: cell-based or functional assay.
The target in assay [2] is T1, endogenous procaspase-3 (LNZ308, U87MG and 293T cells) (human, UniProt P42574 1-277).
T1 sequence (looked up): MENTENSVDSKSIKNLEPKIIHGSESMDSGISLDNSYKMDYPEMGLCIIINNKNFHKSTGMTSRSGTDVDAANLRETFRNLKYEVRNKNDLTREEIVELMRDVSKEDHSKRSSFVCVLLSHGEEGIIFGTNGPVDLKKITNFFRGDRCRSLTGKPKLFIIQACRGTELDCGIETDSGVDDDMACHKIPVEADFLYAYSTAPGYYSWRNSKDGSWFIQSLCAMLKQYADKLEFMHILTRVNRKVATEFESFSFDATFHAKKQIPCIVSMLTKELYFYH
Nature of the assay: anti-L12-2 immunoprecipitation from LNZ308, U87MG and 293T lysates, western blot. The method, then: (§1) To define further the molecular actions of Bcl2L12 polypeptides, the physical interactions with key post-mitochondrial apoptosis signaling molecules were assessed. Anti-L12-2 immunoprecipitates from lysates of LNZ308, U87MG, and 293T cells were subjected to western blot analysis for procaspases 7 and 3 and cytochrome c. Briefly, cells were lysed in IP buffer. Cleared supernatants were incubated with prebleed serum (8 μl) coupled to Protein A-sepharose 4B beads (Sigma) for 1 hour and subsequently with anti-L12-2 antiserum (8 μl) for 1 to 2 hours. […] The blots were washed with PBS/Tween and developed with goat anti-rabbit IgG (1:10,000) or with goat anti-mouse antibodies (1:10,000) (Pierce) in 5% milk PBS/Tween. After washing with PBS/Tween, the blots were developed with the Lumigen PS3 kit (Amersham) following the manufacturer's protocol. 1/40 of the lysate used for the immunoprecipitation was loaded to quantify the amount of co-immunoprecipitated caspase-7. […] Anti-L12-2 immunoprecipitates from control- and siRNA#5-treated U87MG cells were also subjected to western blot analysis for caspase-7.

Assay [3] has as its target T2, cytochrome c (endogenous, LNZ308, U87MG and 293T cells) (human, UniProt P99999 2-105).
T2 construct: also called apoptosome component cytochrome c
The description is as above. The method, then:
as §1

Sequence of endogenous Apaf-1 polypeptide of 293T cells (human) (O14727 whole entry): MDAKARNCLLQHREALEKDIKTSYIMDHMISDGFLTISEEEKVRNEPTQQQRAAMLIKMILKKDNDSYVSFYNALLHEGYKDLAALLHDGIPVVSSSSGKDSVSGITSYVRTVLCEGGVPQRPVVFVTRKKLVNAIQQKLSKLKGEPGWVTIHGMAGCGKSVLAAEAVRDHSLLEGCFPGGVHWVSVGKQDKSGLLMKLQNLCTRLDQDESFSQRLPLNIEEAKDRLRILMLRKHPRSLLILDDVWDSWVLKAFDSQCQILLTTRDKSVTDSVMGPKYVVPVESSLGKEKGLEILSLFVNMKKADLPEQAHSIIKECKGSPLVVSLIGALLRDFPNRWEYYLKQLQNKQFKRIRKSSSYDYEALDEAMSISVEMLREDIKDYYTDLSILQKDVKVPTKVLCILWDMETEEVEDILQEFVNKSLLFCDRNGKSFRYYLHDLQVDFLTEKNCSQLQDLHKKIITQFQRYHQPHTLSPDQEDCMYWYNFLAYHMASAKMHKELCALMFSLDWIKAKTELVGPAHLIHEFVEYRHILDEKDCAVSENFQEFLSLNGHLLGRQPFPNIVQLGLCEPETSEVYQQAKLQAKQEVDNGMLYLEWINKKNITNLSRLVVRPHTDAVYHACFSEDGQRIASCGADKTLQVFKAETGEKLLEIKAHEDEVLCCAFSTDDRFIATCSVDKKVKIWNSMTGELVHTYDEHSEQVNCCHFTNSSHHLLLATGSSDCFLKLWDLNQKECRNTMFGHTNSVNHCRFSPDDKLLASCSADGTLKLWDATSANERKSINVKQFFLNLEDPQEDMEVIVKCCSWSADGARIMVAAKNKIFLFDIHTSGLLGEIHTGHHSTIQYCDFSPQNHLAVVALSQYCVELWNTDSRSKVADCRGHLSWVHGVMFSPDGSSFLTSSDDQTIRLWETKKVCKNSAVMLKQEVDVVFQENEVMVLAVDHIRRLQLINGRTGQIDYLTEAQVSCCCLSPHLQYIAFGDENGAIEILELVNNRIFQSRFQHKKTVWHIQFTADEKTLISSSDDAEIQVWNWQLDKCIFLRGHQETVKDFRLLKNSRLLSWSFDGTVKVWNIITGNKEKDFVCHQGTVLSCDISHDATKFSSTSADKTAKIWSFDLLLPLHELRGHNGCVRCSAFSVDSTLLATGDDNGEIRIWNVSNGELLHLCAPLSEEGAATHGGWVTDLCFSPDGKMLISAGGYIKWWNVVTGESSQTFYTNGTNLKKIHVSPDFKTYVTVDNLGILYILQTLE
T2 sequence (P99999 2-105 limits assumed): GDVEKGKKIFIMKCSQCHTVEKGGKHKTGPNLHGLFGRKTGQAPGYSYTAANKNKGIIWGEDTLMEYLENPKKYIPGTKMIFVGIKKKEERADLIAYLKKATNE

In the case of “Bcl2L12-ΔBH2ΔP-rΔIHD polypeptide, V5 tagged (human amino acid sequence 1-167)”, the caspase-9 activity in 293T cells (vector only: about 420 RFUs) in assay [1] was found to be 160 RFUs.

B1: endogenous Bcl2L12 polypeptide of human cell lines (LNZ308, LN443, LN382, U87MG, 293T) (other)
chain: MGRPAGLFPPLCPFLGFRPEACWERHMQIERAPSVPPFLRWAGYRPGPVRRRGKVELIKFVRVQWRRPQVEWRRRRWGPGPGASMAGSEELGLREDTLRVLAAFLRRGEAAGSPVPTPPRSPAQEEPTDFLSRLRRCLPCSLGRGAAPSESPRPCSLPIRPCYGLEPGPATPDFYALVAQRLEQLVQEQLKSPPSPELQGPPSTEKEAILRRLVALLEEEAEVINQKLASDPALRSKLVRLSSDSFARLVELFCSRDDSSRPSRACPGPPPPSPEPLARLALAMELSRRVAGLGGTLAGLSVEHVHSFTPWIQAHGGWEGILAVSPVDLNLPLD
notes: Endogenous protein in lysates or fixed cells of human cell lines
Take B1: the binding result in assay [2] and in assay [3] was “no binding” throughout.

(Values after patent US20060252053A1 (Dana-Farber, published 2006).)
